# B1: Zinc finger HIT domain-containing protein 1 (Homo sapiens), O43257 (parent)
# chain: MVEKKTSVRSQDPGQRRVLDRAARQRRINRQLEALENDNFQDDPHAGLPQLGKRLPQFDDDADTGKKKKKTRGDHFKLRFRKNFQALLEEQNLSVAEGPNYLTACAGPPSRPQRPFCAVCGFPSPYTCVSCGARYCTVRCLGTHQETRCLKWTV
# Variants of: B1
# Settings: with mk14_human MAPK14, Q16539
# Sequence of mk14_human MAPK14, Q16539 (Q16539 whole entry): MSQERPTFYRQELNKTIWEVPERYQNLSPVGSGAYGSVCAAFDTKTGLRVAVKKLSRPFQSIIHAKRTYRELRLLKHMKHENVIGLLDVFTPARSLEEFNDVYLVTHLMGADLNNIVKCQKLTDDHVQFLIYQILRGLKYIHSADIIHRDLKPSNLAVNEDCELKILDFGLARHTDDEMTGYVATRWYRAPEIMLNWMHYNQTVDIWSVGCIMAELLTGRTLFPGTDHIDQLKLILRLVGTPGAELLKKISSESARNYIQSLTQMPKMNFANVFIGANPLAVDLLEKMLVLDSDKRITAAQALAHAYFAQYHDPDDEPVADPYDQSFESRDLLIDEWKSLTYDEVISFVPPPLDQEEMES
row,Variant,effect of a mutation on the interaction
1,T103A,disrupting interaction

# Source: IntAct's records for PubMed 17380123
